Laboratory results taken from paper PMC9048679, “Correlation Between Improved Mating Efficiency and Weakened Scaffold-Kinase Interaction in the Mating Pheromone Response Pathway Revealed by Interspecies Complementation” (Frontiers in Microbiology, 2022).

How the values were obtained:
Test in all cases: two-hybrid; Matchmaker GAL4 system; Ste5 forms on Gal4-AD (pGADT7, AH109), Ste7 orthologs on Gal4-BD (pGBKT7, Y187), diploids on SC-Leu-Trp; quantitative β-galactosidase assay of cell lysate with ONPG; units of the same BD-Ste7 with void pGADT7 subtracted; mean of three colonies
[1] = biological target: KmSte7 (Ste7 of Kluyveromyces marxianus), Gal4-BD fusion (K. marxianus)
[2] = biological target: KlSte7 (Ste7 of Kluyveromyces lactis), Gal4-BD fusion (K. lactis) (UniProt Q6CSZ8)
[3] = biological target: T1, KlSte7 (Ste7 of Kluyveromyces lactis), Gal4-BD fusion (K. lactis, UniProt Q6CSZ8 1-504); settings: partners not purified
T1 construct: Ste7 (MAPKK) of Kluyveromyces lactis, KEGG KLLA0_C16577g; ORF cloned into the EcoRI site of pGBKT7; source: yeast two-hybrid fusion (pGBKT7, transformed into Y187, diploid with AH109)
T1 sequence (looked up): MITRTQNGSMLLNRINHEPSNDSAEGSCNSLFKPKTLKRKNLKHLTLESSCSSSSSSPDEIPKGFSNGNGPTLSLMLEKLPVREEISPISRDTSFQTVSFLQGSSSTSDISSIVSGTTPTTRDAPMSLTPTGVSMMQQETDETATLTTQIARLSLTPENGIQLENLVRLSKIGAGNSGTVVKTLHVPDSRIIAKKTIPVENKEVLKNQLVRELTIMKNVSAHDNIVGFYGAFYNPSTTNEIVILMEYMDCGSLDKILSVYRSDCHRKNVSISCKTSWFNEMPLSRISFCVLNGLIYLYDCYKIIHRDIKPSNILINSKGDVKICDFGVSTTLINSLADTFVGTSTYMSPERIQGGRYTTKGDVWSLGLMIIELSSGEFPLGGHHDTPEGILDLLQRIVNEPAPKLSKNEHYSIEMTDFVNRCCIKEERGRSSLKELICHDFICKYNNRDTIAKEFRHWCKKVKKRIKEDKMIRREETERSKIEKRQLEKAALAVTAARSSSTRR

[4] = biological target: T2, KmSte7 (Ste7 of Kluyveromyces marxianus), Gal4-BD fusion (K. marxianus, UniProt A0ABX6F0V6 1-494); settings: partners not purified
T2 construct: Ste7 (MAPKK) of Kluyveromyces marxianus, KEGG KLMA_70246; ORF cloned into the EcoRI site of pGBKT7; source: yeast two-hybrid fusion (pGBKT7, transformed into Y187, diploid with AH109)
T2 sequence (looked up): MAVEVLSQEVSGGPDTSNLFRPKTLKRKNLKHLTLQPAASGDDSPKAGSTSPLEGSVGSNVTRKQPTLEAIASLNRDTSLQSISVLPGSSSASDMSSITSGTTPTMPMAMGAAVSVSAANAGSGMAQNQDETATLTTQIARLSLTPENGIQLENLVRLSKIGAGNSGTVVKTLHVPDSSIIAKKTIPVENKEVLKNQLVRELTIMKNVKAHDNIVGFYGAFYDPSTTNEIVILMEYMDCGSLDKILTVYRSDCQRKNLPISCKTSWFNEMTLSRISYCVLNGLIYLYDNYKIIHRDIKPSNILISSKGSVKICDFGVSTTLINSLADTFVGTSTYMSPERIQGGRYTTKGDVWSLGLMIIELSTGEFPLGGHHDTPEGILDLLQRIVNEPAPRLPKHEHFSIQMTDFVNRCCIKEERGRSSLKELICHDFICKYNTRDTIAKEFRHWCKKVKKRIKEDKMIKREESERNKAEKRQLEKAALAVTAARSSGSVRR

Molecule | strength of the interaction (units of β-galactosidase) (units of β-galactosidase) [1] | strength of the interaction (units of β-galactosidase) (units of β-galactosidase) [2] | strength of the interaction (units of β-galactosidase) [3] | strength of the interaction (units of β-galactosidase) [4]
KlSte5-KmBD (KlSte5 with its Ste7-binding region replaced by that of KmSte5), Gal4-AD fusion (from UniProt A0ABX6ETE1 660-763) | 11 | 20.3 | – | –
KmSte5-KlBD (KmSte5 with its Ste7-binding region replaced by that of KlSte5), Gal4-AD fusion (from UniProt A0ABX6ETE1 1-659) | 14.9 | 31.8 | – | –
KlSte5 (Ste5 of Kluyveromyces lactis), Gal4-AD fusion (natural protein, K. lactis, UniProt Q6CKB4 1-746, looked up, Ste5 of Kluyveromyces lactis, KEGG KLLA0_F12023g; probably the whole ORF; source: yeast two-hybrid fusion (pGADT7, transformed into AH109, diploid with Y187)) MSRGNTSSMNSQDILFQLTNVGSSPVPKLDTGSTSGSNTSSPRRWTELFSKKRVKTPSVGTPSTASSMISSFYDSSPIRPVSKQHPKHLLVDPIMPPPPIMLSPIGHETLGKKPTRKNGNKSWKNERCCICGDLCSFKGSNEKVIPLECNHMCHEDCLMVSLRPLPHKSNLYDALPKCDICSMSCIPGQEDMRQKVRSHLLTLPDDGESVGLEPYNPQENYERIKLCDADLLPKHSGNDETFPHLQTTRTTARNNDIRLSFAFSLKPGKTVTPSLRDSIRLHRSRSIKRRSNFRGSTVSGLSSIVSSSSKDDCQLPSLHVQRQYFIQAFLNSFSEVKPWEIDAKYGLLRLIDNFLISLDGINFQHQVCYLFSEYLLVCRPSPATSANVLQFSSYRCFQLNNPPELDLLDATTLESKSRSGERILIKPYGLDTKALEKWITALFDLTLPFGNYDFTSIKVPEFVACIPSTNDTGTIIVRRQSTLNETLIPKTIRDSSVLTSISSILSIKRATPNELNLVLQLDKRKTNEDNIVSIKNVILALTWKFSTFNCCIVDVEGMVINCGTANDVLNSLAGPIKSNGNQPFSPDLLHQLWYRQKQKICKNVGVVVLSNSSMENGKSCLFSDYRIFADAGKRHPNELKIKVGFLNVDYSDNIKELVEIQDWNELLEAVAYSFNLSFDDDLDSSDCVSTSSSDFEVDSVPDKNRTFRLSSPISWENHVQADLTGSMNGISESIEDRQSNHMYDYL | – | – | 13.7 units of β-galactosidase | 8.13 units of β-galactosidase
KmSte5 (Ste5 of Kluyveromyces marxianus), Gal4-AD fusion (natural protein, K. marxianus, UniProt A0ABX6ETE1 1-763, looked up, Ste5 of Kluyveromyces marxianus, KEGG KLMA_20171; probably the whole ORF; also called natural KmSte5; source: yeast two-hybrid fusion (pGADT7, transformed into AH109, diploid with Y187)) MNSQEILFQLTNVGSTPVSSKNDTMTTPTSGSNTSSPRRWTELFSKKRAKTPSISTPSTSSSAVSSLHDGSPVRPGSKQSFRHFNIDSALQYPPVMQSPESYHSAGNGNGSGHGNVQVGKKPHRRGGNKSWKNEKCCICRDLCSFKGSTERVIILQCNHMCHEDCLMVSLNPVSKTFDLYDALPKCQMCSMLCVPSQEDMKQRLRNHLLTVNSSSSDQLSSAIPQVQSQLKPHNSPENTRTGIGPLAPPPPPLSMRNAVKTTPTNRDIRLSFASSLKPPVFVTPSVRDSWRLPRASSIKRRSNNYRGSTISALSSITSSSSLYNDSQLVCSLHIQRQYFMQAFLTSFEEIKPWEIDSRYGLLRLIDYFLISLDDQGFKQCCCYLFSEYLLLCQPSSKASSNVLQFSSYRFLQLNSPANIELIDATTLELKAKTGERVRIKPFNSDTKSLEKWITAFFDPTLTFGNLDFTSIPLPDFVSAMPSADDSRTIIVRRQNTINETIVTAGPRDSTLFTSISSILSIKRSTPRELNVILQVDRRKLKSENLITIKNVLSALTWKYHDFNCCIVGVDGLIVKIGGAREILDSWAEISDAGTQPFSPALLYKTWYKERGKVCNNAGVLVISNASMETGKTCLFHDYRMFANVGKRHVNELKIKVGFLNVDYTNKIKELVEIQDWNELLEAVSYSFNINFDDDDDDDDDEGDSDTSDSFSVGSSEFNKSLNSDNERLVRPPSPTSFEDIEADSHSQFDDDSELQHSIIYDYL | – | – | 30 units of β-galactosidase | 22.8 units of β-galactosidase
